Data: doi:10.1101/2023.12.05.570199

Molecular target: AliC (residues 24-655) (Streptococcus pneumoniae)
Experiment: crystal structure

stoichiometry N: 2
Substance: AliC (residues 24-655) (natural protein)
